Test results from doi:10.1101/2021.03.11.435015.

Target: Myc-PUM1-R1147W (human) (UniProt Q14671)
Experiment: co-IP

## GST-CNOT1 (from UniProt A5YKK6 1-2376) (natural protein)
  percent by which the interaction is diminished against Myc-PUM1-WT: 35%
